In patent publication US20150197561A1 (ONCOMED PHARMACEUTICALS, published 2015):
Positions count from the first letter of the chain named. Read-outs that look alike come from different tables or passages of the source.

B1: antibody 64M51 (antibody, mouse IgG1, kappa, V domains shown)
VH: QVQLKQSGAELVRPGTSVKLSCKTSGYIFTSYWIHWVKQRSGQGLEWIARIYPGIGSTYYNEKFKDKATLTADKSSSTAYMQLSSLKSEDSAVYFCAKNGGFFDYWGQGTTLTVSS
VL: DIVLTQSPASLAVSLGQRATISCRASESVDSYGNSFMHWYQQKPGQPPKLLIYRASNLESGIPARFSGSGSRTDFTLTINPVEADDVATYYCQQSNEDPWTFGGGTKLEIKR
notes: Mouse hybridoma monoclonal raised against mouse Jagged1 ECD-His; also called anti-Jagged 64M51; ATCC PTA-10468
B2: 64R1B IgG2 antibody (antibody, V domains shown)
VH: QVQLQESGPGLVKPSGTLSLTCTVSGDSISSSNWWSWVRQPPGQGLEWIGEIFHGENTNYNPSLKSRVTISVDKSKNQISLNLTSATAADTAVYYCARNPGIGAAKFDSWGQGTLVTVSS
VL: DIVMTQTPLSLSVTPGQPASISCKSSQSLLHSDGKTYLYWYLQKPGQPPQLLIYEVSNRFSGVPDRFSGSGSGTDFTLKISRVEAEDVGVYYCMQHIDFPFTFGQGTKLEIKR
notes: Human IgG2 / kappa, expressed in CHO cells; also called antibody 64R1B; ATCC PTA-10469
B3: Fab 64R7 (Fab, V domains shown)
VH: QVQLVESGGGVVQPGRSLRLSCAASGFTFSSYAMHWVRQAPGKGLEWVAVISYDGSNKYYADSVKGRFTISRDNSKNTLYLQMNSLRAEDTAVYYCARDKYDIPDAFDIWGQGTLVTVSS
VL: DIRMTQSPSSLSASVGDRVTITCRASQGISNDLAWYQQKPGKVPRLLIYATSTLQSGVPSRFSGSGSATDFTLTISSLQPEDVATYYCQQSYNAPITFGQGTRLEIK
notes: Fab from a human Fab phage library; also called 64R7 Fab
B4: antibody 133R0201 (antibody, V domains shown)
VH: QVQLVESGGGVVQPGRSLRLSCAASGFTFSSYAMHWVRQAPGKGLEWVAAIYPDSSNKYYADSVKGRFTISRDNSKNTLYLQMNSLRAEDTAVYYCARDKYDIPDAFDIWGQGTLVTVS
VL: B3 VL
B5: 64R7 IgG2 antibody (antibody, V domains shown)
VH: B3 VH
VL: DIRMTQSPSSLSASVGDRVTITCRASQGISNDLAWYQQKPGKVPRLLIYATSTLQSGVPSRFSGSGSATDFTLTISSLQPEDVATYYCQQSYNAPITFGQGTRLEIKR
notes: Human IgG2 / kappa, expressed in CHO cells; also called antibody 64R7; ATCC PTA-10470
B6: antibody 133R0203 (antibody, V domains shown)
VH: B4 VH with Y52S, D54E, S55A
VL: B3 VL
B7: antibody 133R0205 (antibody, V domains shown)
VH: B4 VH with D54A
VL: B3 VL

Legend:
[1] = target: T1, human Jagged1-Fc (extracellular domain of human Jagged1 fused to human Fc) (human, UniProt P78504 34-1067); assay: SPR, Biacore 2000; Jagged protein amine-coupled to CM5 chip, antibody injected 100-1.0 nM, global fit
T1 construct: also called hJag1; human Jagged1 ECD-Fc; not shown: human Fc
Protocol: (§1) The KDs of 64M51, 64R7 and 64R1B antibodies were determined using a Biacore 2000 system from Biacore Lifescience (GE Healthcare). Recombinant Jagged proteins human Jagged1-Fc (hJag1), mouse Jagged1-His (mJag1), human Jagged2-Fc (hJag2) and mouse Jagged2-Fc (mJag2) were immobilized on a CM5 chip using standard amine-based chemistry (NHS/EDC). Antibodies were serially diluted in 2-fold increments from 100 to 1.0 nM in HBS-P (0.01M HEPES pH7.4, 0.15M NaCl, 0.005% v/v Surfactant P20) and were injected over the chip surface. Kinetic data were collected over time and were fit using the simultaneous global fit equation to yield affinity constants (KD values) for each antibody (Table 3).

[2] = target: T2, mouse Jagged1-His (extracellular domain of mouse Jagged1, aa 1-1060, with histidine tag) (mouse, UniProt Q9QXX0 34-1060); assay: as above
T2 construct: made in insect cells; also called mJag1; Mouse Jagged 1 ECD His-tagged
Protocol: as §1

[3] = target: T3, human Jagged2-Fc (extracellular domain of human Jagged2 fused to human Fc) (human, UniProt Q9Y219 27-1080); assay: as above
T3 construct: also called hJag2; not shown: human Fc
T3 sequence (Q9Y219 27-1080 E501K): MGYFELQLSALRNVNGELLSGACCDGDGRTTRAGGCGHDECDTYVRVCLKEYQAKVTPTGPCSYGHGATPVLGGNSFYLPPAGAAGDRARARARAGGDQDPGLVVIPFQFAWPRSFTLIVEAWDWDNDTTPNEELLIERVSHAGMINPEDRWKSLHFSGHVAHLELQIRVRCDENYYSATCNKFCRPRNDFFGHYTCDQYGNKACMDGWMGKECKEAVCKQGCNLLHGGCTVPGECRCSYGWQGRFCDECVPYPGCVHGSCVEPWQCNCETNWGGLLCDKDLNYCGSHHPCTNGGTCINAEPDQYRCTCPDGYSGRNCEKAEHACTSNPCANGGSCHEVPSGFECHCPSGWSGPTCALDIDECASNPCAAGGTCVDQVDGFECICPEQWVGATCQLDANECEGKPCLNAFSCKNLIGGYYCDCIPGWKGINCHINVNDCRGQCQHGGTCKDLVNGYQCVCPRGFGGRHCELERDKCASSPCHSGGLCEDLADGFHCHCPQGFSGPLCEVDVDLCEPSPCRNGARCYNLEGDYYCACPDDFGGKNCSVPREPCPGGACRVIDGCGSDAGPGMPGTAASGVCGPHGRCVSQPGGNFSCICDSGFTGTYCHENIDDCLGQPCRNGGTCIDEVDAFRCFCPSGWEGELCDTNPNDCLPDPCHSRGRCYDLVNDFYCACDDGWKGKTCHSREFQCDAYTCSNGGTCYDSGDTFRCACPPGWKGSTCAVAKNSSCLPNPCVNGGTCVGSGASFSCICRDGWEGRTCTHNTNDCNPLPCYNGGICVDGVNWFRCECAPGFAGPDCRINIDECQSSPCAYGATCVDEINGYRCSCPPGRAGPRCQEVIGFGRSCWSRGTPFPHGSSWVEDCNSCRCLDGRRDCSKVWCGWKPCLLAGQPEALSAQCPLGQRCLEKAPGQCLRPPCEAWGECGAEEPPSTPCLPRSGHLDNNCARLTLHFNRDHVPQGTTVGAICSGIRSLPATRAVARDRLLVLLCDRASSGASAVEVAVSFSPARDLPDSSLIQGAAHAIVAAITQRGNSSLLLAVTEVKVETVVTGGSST
Protocol: as §1

[4] = target: T4, mouse Jagged2-Fc (extracellular domain of mouse Jagged2 fused to human Fc) (mouse, UniProt Q9QYE5 24-1082); assay: as above
T4 construct: extracellular domain; also called mJag2; not shown: human Fc
T4 sequence (Q9QYE5 24-1082): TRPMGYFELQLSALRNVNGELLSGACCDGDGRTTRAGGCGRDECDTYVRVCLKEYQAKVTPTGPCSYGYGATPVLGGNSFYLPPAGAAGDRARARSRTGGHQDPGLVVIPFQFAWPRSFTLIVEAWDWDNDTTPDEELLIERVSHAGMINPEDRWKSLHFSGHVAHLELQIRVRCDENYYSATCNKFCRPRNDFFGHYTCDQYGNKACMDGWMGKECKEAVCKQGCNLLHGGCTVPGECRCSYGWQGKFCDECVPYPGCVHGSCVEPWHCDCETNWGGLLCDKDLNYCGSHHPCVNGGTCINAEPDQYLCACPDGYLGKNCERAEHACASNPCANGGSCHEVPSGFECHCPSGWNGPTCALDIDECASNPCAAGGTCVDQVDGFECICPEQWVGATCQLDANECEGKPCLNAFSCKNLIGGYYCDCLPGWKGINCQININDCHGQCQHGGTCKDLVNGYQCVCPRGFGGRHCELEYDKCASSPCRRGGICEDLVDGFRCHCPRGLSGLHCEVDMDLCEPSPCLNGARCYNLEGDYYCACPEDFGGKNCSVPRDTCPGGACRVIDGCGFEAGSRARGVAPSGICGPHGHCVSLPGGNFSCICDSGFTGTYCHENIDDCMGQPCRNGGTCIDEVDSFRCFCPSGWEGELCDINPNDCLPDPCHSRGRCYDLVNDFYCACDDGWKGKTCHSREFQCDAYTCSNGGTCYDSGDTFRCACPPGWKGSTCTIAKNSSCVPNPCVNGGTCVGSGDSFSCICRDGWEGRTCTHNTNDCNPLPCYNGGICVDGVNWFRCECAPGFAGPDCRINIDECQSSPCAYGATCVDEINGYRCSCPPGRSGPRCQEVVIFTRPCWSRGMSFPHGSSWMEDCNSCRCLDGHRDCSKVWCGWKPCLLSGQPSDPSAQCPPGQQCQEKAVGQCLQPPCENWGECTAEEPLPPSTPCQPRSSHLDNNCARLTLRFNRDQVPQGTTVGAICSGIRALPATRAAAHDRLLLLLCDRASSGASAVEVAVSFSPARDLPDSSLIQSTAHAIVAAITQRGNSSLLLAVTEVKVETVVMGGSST
Protocol: as §1

[5] = target: T5, human Jagged2, full-length, expressed on transfected cells (human, UniProt Q9Y219 24-1238); assay: flow cytometry on transfected HEK293 cells
T5 construct: Full-length cDNA transfected into HEK293 cells (FACS) or PC3 cells (two cell population reporter assay); also called hJagged2; hJag2
T5 sequence (Q9Y219 24-1238 E501K limits assumed): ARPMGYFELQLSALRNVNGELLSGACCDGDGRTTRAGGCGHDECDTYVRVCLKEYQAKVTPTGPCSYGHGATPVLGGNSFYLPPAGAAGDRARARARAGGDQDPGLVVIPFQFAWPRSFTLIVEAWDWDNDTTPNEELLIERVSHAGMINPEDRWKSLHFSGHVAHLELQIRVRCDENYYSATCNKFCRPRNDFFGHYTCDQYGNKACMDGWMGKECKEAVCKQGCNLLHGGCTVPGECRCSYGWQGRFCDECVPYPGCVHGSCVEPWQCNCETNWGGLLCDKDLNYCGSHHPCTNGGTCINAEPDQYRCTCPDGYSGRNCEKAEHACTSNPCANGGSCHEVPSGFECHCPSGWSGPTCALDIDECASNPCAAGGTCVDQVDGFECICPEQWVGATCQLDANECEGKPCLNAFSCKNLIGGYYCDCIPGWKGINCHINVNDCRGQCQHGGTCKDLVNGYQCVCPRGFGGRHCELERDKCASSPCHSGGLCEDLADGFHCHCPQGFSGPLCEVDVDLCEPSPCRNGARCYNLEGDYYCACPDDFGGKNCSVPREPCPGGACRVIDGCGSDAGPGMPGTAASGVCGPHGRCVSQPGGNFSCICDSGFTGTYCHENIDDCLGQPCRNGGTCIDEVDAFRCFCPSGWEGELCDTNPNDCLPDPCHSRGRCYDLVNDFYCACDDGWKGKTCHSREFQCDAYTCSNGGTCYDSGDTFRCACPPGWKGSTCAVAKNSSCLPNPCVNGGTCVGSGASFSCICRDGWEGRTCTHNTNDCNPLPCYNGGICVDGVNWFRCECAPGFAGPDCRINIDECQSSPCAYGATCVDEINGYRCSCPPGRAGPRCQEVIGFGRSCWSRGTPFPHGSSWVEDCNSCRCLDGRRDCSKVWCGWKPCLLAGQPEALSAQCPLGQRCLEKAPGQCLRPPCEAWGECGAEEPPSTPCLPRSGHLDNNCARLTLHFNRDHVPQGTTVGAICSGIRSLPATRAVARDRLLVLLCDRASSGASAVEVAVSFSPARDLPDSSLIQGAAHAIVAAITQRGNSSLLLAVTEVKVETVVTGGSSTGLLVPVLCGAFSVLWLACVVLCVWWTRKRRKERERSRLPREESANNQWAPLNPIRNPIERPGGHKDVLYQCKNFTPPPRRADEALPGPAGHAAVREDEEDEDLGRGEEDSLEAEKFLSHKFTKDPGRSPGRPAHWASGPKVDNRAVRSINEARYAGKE

[6] = target: T6, mouse Jagged2 expressed on HEK293 cells (mouse, UniProt Q9QYE5 24-1247); assay: flow cytometry on transfected HEK293 cells
T6 construct: whole, on cells
T6 sequence (Q9QYE5 24-1247): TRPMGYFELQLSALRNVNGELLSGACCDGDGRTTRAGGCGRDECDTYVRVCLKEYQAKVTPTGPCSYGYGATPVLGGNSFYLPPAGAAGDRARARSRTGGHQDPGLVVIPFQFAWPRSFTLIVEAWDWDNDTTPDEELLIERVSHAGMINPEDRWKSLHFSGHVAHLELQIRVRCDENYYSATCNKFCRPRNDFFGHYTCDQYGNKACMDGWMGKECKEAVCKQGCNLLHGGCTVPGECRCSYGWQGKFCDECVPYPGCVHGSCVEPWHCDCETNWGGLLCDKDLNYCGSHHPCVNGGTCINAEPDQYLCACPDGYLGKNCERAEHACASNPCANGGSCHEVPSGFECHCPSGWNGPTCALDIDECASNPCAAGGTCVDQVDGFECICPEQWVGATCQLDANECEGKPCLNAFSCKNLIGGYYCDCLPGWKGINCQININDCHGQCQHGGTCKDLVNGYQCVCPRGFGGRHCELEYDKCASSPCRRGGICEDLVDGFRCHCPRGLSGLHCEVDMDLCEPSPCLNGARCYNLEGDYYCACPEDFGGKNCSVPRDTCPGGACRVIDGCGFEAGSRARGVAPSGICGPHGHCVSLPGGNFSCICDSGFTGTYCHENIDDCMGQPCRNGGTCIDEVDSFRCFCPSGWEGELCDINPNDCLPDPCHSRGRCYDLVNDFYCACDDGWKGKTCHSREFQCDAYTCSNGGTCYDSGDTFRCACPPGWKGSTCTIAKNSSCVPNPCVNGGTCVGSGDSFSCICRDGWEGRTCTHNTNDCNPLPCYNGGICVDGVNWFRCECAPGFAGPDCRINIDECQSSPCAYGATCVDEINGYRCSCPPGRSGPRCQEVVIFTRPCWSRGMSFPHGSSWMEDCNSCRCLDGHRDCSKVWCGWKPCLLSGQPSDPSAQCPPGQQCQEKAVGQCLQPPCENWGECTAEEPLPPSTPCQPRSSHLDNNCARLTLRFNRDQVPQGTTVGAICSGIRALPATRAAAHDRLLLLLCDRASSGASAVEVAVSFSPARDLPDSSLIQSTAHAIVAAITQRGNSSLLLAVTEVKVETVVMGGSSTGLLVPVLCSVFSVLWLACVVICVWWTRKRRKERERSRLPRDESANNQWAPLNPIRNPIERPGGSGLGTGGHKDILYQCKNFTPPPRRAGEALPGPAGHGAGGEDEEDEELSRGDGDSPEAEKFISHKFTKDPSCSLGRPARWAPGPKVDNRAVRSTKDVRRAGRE

[7] = target: T3, human Jagged2-Fc (extracellular domain …); assay: SPR, Biacore 2000; Jagged protein on CM5 chip, antibody injected
Protocol: as §1

[8] = target: T4, mouse Jagged2-Fc (extracellular domain …); assay: as above
Protocol: as §1

[9] = target: T1, human Jagged1-Fc (extracellular domain …); assay: phage display output screened by ELISA on recombinant human Jagged1 ECD-Fc; 64R7 named as one of the Fabs in paragraph 226
Protocol: Phage display was used to identify specific Fabs that bind to the extracellular domain of human Jagged1. 2×10¹³ Fab displaying phage particles from a human Fab phage library were incubated with passively immobilized recombinant human Jagged1 ECD protein fused with a human Fc domain. The non-binding phage were washed off, phage bound to the Jagged1 protein were eluted with 100 mM glycine, […] pH2.2 and the elutant was neutralized with 1/10 volume of 2M Tris base. The eluted output phage were used to infect TG1 F+ bacteria and rescued with helper phage. The output of rescued round one served as the starting point for further selection rounds. The selections were continued to round 3, and then the output was screened in ELISA for Fabs specifically binding to recombinant human Jagged1 ECD-Fc protein. Several Fabs that specifically bound to human Jagged1 were identified.

[10] = target: T1, human Jagged1-Fc (extracellular domain …); assay: SPR, Biacore 2000; Jagged protein amine-coupled to CM5 chip, antibody injected 100-1.0 nM, global fit; remark: listed apart in the source
Protocol: as §1, with “antibodies 133R0201, 133R0203” for “64M51, 64R7”, “133R0205” for “64R1B antibodies”, “Healthcare) and compared to K, of antibody 64R7. As described above in Example 4, recombinant” for “Healthcare). Recombinant”, “(K,” for “(KD”, “5).” for “3).”

[11] = target: T2, mouse Jagged1-His (extracellular domain …); assay: as above; remark: listed apart in the source
Protocol: as §1, with “antibodies 133R0201, 133R0203” for “64M51, 64R7”, “133R0205” for “64R1B antibodies”, “Healthcare) and compared to K, of antibody 64R7. As described above in Example 4, recombinant” for “Healthcare). Recombinant”, “(K,” for “(KD”, “5).” for “3).”

[12] = target: T3, human Jagged2-Fc (extracellular domain …); assay: as above; remark: listed apart in the source
Protocol: as §1, with “antibodies 133R0201, 133R0203” for “64M51, 64R7”, “133R0205” for “64R1B antibodies”, “Healthcare) and compared to K, of antibody 64R7. As described above in Example 4, recombinant” for “Healthcare). Recombinant”, “(K,” for “(KD”, “5).” for “3).”

[13] = target: T4, mouse Jagged2-Fc (extracellular domain …); assay: as above; remark: listed apart in the source
Protocol: as §1, with “antibodies 133R0201, 133R0203” for “64M51, 64R7”, “133R0205” for “64R1B antibodies”, “Healthcare) and compared to K, of antibody 64R7. As described above in Example 4, recombinant” for “Healthcare). Recombinant”, “(K,” for “(KD”, “5).” for “3).”

[14] = target: T1, human Jagged1-Fc (extracellular domain …); assay: SPR, Biacore 2000; Jagged protein amine-coupled to CM5 chip, antibody injected 100-1.0 nM, global fit; Example 13 run (Table 5), compared with 133R0201, 133R0203, 133R0205; separate experiment from Table 3
Protocol: as §1, with “antibodies 133R0201, 133R0203” for “64M51, 64R7”, “133R0205” for “64R1B antibodies”, “Healthcare) and compared to K, of antibody 64R7. As described above in Example 4, recombinant” for “Healthcare). Recombinant”, “(K,” for “(KD”, “5).” for “3).”

Row | Binder | Kd [1] [nM] | Kd [2] [nM] | Kd [10] [nM] | Kd [11] [nM] | Kd [12] [nM] | Kd [13] [nM] | other results
1 | B1 | 30 | 33 | – | – | – | – | Kd [3]: 6.2 nM; Kd [4]: 7.9 nM
2 | B2 | 0.61 | 0.82 | – | – | – | – | binding result [5]: no binding (tested: 10 µg/ml); binding result [6]: no binding (tested: 10 µg/ml); binding result [7]: no binding (tested: No binding detected at 100 nM); binding result [8]: no binding (tested: No binding detected at 100 nM)
3 | B3 | – | – | – | – | – | – | binding result [9]: binds
4 | B4 | – | – | 0.76 | 0.8 | 2.9 | 3.2 | –
5 | B5 | 5.9 | 10.5 | – | 4.8 | 10 | 9.6 | Kd [3]: 8.3 nM; Kd [4]: 20.6 nM; Kd [14]: 1.7 nM
6 | B6 | – | – | 1.4 | 1.6 | 3.7 | 3.8 | –
7 | B7 | – | – | 1.2 | 1.5 | 5.8 | 4.8 | –
